In patent US20210230570:

B1: FIXa-R318Y/R338E/R403E/E410N (protein)
chain 1: YNSGKLEEFVQGNLERECMEEKCSFEEAREVFENTERTTEFWKQYVDGDQCESNPCLNGGSCKDDINSYECWCPFGFEGKNCELDVTCNIKNGRCEQFCKNSADNKVVCSCTEGYRLAENQKSCEPAVPFPCGRVSVSQTSKLTR
chain 2: VVGGEDAKPGQFPWQVVLNGKVDAFCGGSIVNEKWIVTAAHCVETGVKITVVAGEHNIEETEHTEQKRNVIRIIPHHNYNAAINKYNHDIALLELDEPLVLNSYVTPICIADKEYTNIFLKFGSGYVSGWGRVFHKGYSALVLQYLRVPLVDRATCLESTKFTIYNNMFCAGFHEGGRDSCQGDSGGPHVTEVEGTSFLTGIISWGEECAMKGKYGIYTKVSEYVNWIKNKTKLT
B2: FIXa-R318Y/R338E/T343R/R403E/E410N (protein)
chain 1: YNSGKLEEFVQGNLERECMEEKCSFEEAREVFENTERTTEFWKQYVDGDQCESNPCLNGGSCKDDINSYECWCPFGFEGKNCELDVTCNIKNGRCEQFCKNSADNKVVCSCTEGYRLAENQKSCEPAVPFPCGRVSVSQTSKLTR
chain 2: VVGGEDAKPGQFPWQVVLNGKVDAFCGGSIVNEKWIVTAAHCVETGVKITVVAGEHNIEETEHTEQKRNVIRIIPHHNYNAAINKYNHDIALLELDEPLVLNSYVTPICIADKEYTNIFLKFGSGYVSGWGRVFHKGYSALVLQYLRVPLVDRATCLESTKFRIYNNMFCAGFHEGGRDSCQGDSGGPHVTEVEGTSFLTGIISWGEECAMKGKYGIYTKVSEYVNWIKNKTKLT
B3: FIXa-R318Y/R338E/E410N (protein)
chain 1: YNSGKLEEFVQGNLERECMEEKCSFEEAREVFENTERTTEFWKQYVDGDQCESNPCLNGGSCKDDINSYECWCPFGFEGKNCELDVTCNIKNGRCEQFCKNSADNKVVCSCTEGYRLAENQKSCEPAVPFPCGRVSVSQTSKLTR
chain 2: VVGGEDAKPGQFPWQVVLNGKVDAFCGGSIVNEKWIVTAAHCVETGVKITVVAGEHNIEETEHTEQKRNVIRIIPHHNYNAAINKYNHDIALLELDEPLVLNSYVTPICIADKEYTNIFLKFGSGYVSGWGRVFHKGYSALVLQYLRVPLVDRATCLESTKFTIYNNMFCAGFHEGGRDSCQGDSGGPHVTEVEGTSFLTGIISWGEECAMKGKYGIYTKVSRYVNWIKNKTKLT
B4: FIXa R318Y/R338E/R403E/E410N (mature FIX numbering) (protein)
chain 1: YNSGKLEEFVQGNLERECMEEKCSFEEAREVFENTERTTEFWKQYVDGDQCESNPCLNGGSCKDDINSYECWCPFGFEGKNCELDVTCNIKNGRCEQFCKNSADNKVVCSCTEGYRLAENQKSCEPAVPFPCGRVSVSQTSKLTR
chain 2: VVGGEDAKPGQFPWQVVLNGKVDAFCGGSIVNEKWIVTAAHCVETGVKITVVAGEHNIEETEHTEQKRNVIRIIPHHNYNAAINKYNHDIALLELDEPLVLNSYVTPICIADKEYTNIFLKFGSGYVSGWGRVFHKGYSALVLQYLRVPLVDRATCLESTKFTIYNNMFCAGFHEGGRDSCQGDSGGPHVTEVEGTSFLTGIISWGEECAMKGKYGIYTKVSEYVNWIKNKTKLT
B5: FIXa-R318Y/R338E/Y345A/N346D/R403E/E410N (protein)
chain 1: YNSGKLEEFVQGNLERECMEEKCSFEEAREVFENTERTTEFWKQYVDGDQCESNPCLNGGSCKDDINSYECWCPFGFEGKNCELDVTCNIKNGRCEQFCKNSADNKVVCSCTEGYRLAENQKSCEPAVPFPCGRVSVSQTSKLTR
chain 2: VVGGEDAKPGQFPWQVVLNGKVDAFCGGSIVNEKWIVTAAHCVETGVKITVVAGEHNIEETEHTEQKRNVIRIIPHHNYNAAINKYNHDIALLELDEPLVLNSYVTPICIADKEYTNIFLKFGSGYVSGWGRVFHKGYSALVLQYLRVPLVDRATCLESTKFTIADNMFCAGFHEGGRDSCQGDSGGPHVTEVEGTSFLTGIISWGEECAMKGKYGIYTKVSEYVNWIKNKTKLT
B6: FIXa-K247N/N249S/R318Y/R338E/T343R/R403E/E410N (protein)
chain 1: YNSGKLEEFVQGNLERECMEEKCSFEEAREVFENTERTTEFWKQYVDGDQCESNPCLNGGSCKDDINSYECWCPFGFEGKNCELDVTCNIKNGRCEQFCKNSADNKVVCSCTEGYRLAENQKSCEPAVPFPCGRVSVSQTSKLTR
chain 2: VVGGEDAKPGQFPWQVVLNGKVDAFCGGSIVNEKWIVTAAHCVETGVKITVVAGEHNIEETEHTEQNRSVIRIIPHHNYNAAINKYNHDIALLELDEPLVLNSYVTPICIADKEYTNIFLKFGSGYVSGWGRVFHKGYSALVLQYLRVPLVDRATCLESTKFRIYNNMFCAGFHEGGRDSCQGDSGGPHVTEVEGTSFLTGIISWGEECAMKGKYGIYTKVSEYVNWIKNKTKLT
B7: FIXa-R318Y/R338E/T343R/E410N (protein)
chain 1: YNSGKLEEFVQGNLERECMEEKCSFEEAREVFENTERTTEFWKQYVDGDQCESNPCLNGGSCKDDINSYECWCPFGFEGKNCELDVTCNIKNGRCEQFCKNSADNKVVCSCTEGYRLAENQKSCEPAVPFPCGRVSVSQTSKLTR
chain 2: VVGGEDAKPGQFPWQVVLNGKVDAFCGGSIVNEKWIVTAAHCVETGVKITVVAGEHNIEETEHTEQKRNVIRIIPHHNYNAAINKYNHDIALLELDEPLVLNSYVTPICIADKEYTNIFLKFGSGYVSGWGRVFHKGYSALVLQYLRVPLVDRATCLESTKFRIYNNMFCAGFHEGGRDSCQGDSGGPHVTEVEGTSFLTGIISWGEECAMKGKYGIYTKVSRYVNWIKNKTKLT
B8: FIXa-Y155F/R318Y/R338E/N346D/R403E/E410N (protein)
chain 1: YNSGKLEEFVQGNLERECMEEKCSFEEAREVFENTERTTEFWKQYVDGDQCESNPCLNGGSCKDDINSYECWCPFGFEGKNCELDVTCNIKNGRCEQFCKNSADNKVVCSCTEGYRLAENQKSCEPAVPFPCGRVSVSQTSKLTR
chain 2: VVGGEDAKPGQFPWQVVLNGKVDAFCGGSIVNEKWIVTAAHCVETGVKITVVAGEHNIEETEHTEQKRNVIRIIPHHNYNAAINKYNHDIALLELDEPLVLNSYVTPICIADKEYTNIFLKFGSGYVSGWGRVFHKGYSALVLQYLRVPLVDRATCLESTKFTIYDNMFCAGFHEGGRDSCQGDSGGPHVTEVEGTSFLTGIISWGEECAMKGKYGIYTKVSEYVNWIKNKTKLT
B9: FIXa-K247N/N249S/R338E/T343R/R403E (protein)
chain 1: YNSGKLEEFVQGNLERECMEEKCSFEEAREVFENTERTTEFWKQYVDGDQCESNPCLNGGSCKDDINSYECWCPFGFEGKNCELDVTCNIKNGRCEQFCKNSADNKVVCSCTEGYRLAENQKSCEPAVPFPCGRVSVSQTSKLTR
chain 2: VVGGEDAKPGQFPWQVVLNGKVDAFCGGSIVNEKWIVTAAHCVETGVKITVVAGEHNIEETEHTEQNRSVIRIIPHHNYNAAINKYNHDIALLELDEPLVLNSYVTPICIADKEYTNIFLKFGSGYVSGWGRVFHKGRSALVLQYLRVPLVDRATCLESTKFRIYNNMFCAGFHEGGRDSCQGDSGGPHVTEVEGTSFLTGIISWGEECAMKGKYGIYTKVSEYVNWIKEKTKLT
B10: FIXa-K228N/K247N/N249S (protein)
chain 1: YNSGKLEEFVQGNLERECMEEKCSFEEAREVFENTERTTEFWKQYVDGDQCESNPCLNGGSCKDDINSYECWCPFGFEGKNCELDVTCNIKNGRCEQFCKNSADNKVVCSCTEGYRLAENQKSCEPAVPFPCGRVSVSQTSKLTR
chain 2: VVGGEDAKPGQFPWQVVLNGKVDAFCGGSIVNEKWIVTAAHCVETGVNITVVAGEHNIEETEHTEQNRSVIRIIPHHNYNAAINKYNHDIALLELDEPLVLNSYVTPICIADKEYTNIFLKFGSGYVSGWGRVFHKGRSALVLQYLRVPLVDRATCLRSTKFTIYNNMFCAGFHEGGRDSCQGDSGGPHVTEVEGTSFLTGIISWGEECAMKGKYGIYTKVSRYVNWIKEKTKLT
B11: FIXa-R318Y/R338E/Y345A/R403E/E410N (protein)
chain 1: YNSGKLEEFVQGNLERECMEEKCSFEEAREVFENTERTTEFWKQYVDGDQCESNPCLNGGSCKDDINSYECWCPFGFEGKNCELDVTCNIKNGRCEQFCKNSADNKVVCSCTEGYRLAENQKSCEPAVPFPCGRVSVSQTSKLTR
chain 2: VVGGEDAKPGQFPWQVVLNGKVDAFCGGSIVNEKWIVTAAHCVETGVKITVVAGEHNIEETEHTEQKRNVIRIIPHHNYNAAINKYNHDIALLELDEPLVLNSYVTPICIADKEYTNIFLKFGSGYVSGWGRVFHKGYSALVLQYLRVPLVDRATCLESTKFTIANNMFCAGFHEGGRDSCQGDSGGPHVTEVEGTSFLTGIISWGEECAMKGKYGIYTKVSEYVNWIKNKTKLT

What was measured:
[1] = target: antithrombin III (plasma purified human AT-III), in complex with unfractionated heparin
[2] = target: Factor X (FX), substrate zymogen, P00742
Factor X (FX), substrate zymogen, P00742, sequence (P00742 whole entry, looked up): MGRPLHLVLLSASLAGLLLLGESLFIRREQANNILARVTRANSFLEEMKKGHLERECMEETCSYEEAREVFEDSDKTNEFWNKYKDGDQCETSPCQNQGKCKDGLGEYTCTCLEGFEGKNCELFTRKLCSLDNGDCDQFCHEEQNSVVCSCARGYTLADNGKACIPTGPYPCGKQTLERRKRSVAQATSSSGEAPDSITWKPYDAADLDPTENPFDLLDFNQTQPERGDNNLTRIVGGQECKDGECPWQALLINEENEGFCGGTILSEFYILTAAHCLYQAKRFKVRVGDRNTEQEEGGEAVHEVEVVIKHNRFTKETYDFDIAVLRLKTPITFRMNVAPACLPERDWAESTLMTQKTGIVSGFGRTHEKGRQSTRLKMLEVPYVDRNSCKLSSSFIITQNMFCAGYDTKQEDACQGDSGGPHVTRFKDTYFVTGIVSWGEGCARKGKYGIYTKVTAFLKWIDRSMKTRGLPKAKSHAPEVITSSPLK

[3] = target: Factor X, P00742
Factor X, P00742, sequence (P00742 whole entry, looked up): as above

[4] = target: Factor X (FX), P00742
Factor X (FX), P00742, sequence (P00742 whole entry, looked up): as above

[5] = target: Antithrombin III (plasma purified human AT-III, Molecular Innovations), as AT-III/UFH complex
[6] = target: plasma purified human antithrombin III (AT-III) in complex with unfractionated heparin (AT-III/UFH)
[7] = target: plasma purified human AT-III (antithrombin III), in complex with full-length unfractionated heparin (AT-III/UFH)

Protein	catalytic activity (kcat/KM) for activation of FX in the Xase complex (FVIIIa, PC/PS vesicles, Ca2+), fluorogenic FXa read-out [2]	K0.5-mut/K0.5-wt (against Catalyst Biosciences WT FIXa) [5]	KM [4] [µM]	kcat of FX activation by FIXa in the Xase complex (FVIIIa, PC/PS vesicles, Ca2+) [4] [s⁻¹]	also measured
B1	displayed some of the greatest increases in catalytic activity	–	–	–	K0.5 [1]: 5.88 µM; KM (Catalytic activity of FIXa variants) [3]: 0.0455 µM; kcat/KM (M^-1s^-1), FX activation by FIXa in the Xase complex [4]: 1.5e+08 M⁻¹ s⁻¹
B2	displayed some of the greatest increases in catalytic activity	> 517	0.0247	9.7	KM (nM); Catalytic activity of FIXa variants (KM) [4]: 22.3 nM; kcat/KM [4]: 5.4e+08 M⁻¹ s⁻¹
B3	displayed some of the greatest increases in catalytic activity	–	–	–	K0.5 [1]: 3.46 µM; K0.5-mut/K0.5-wt [1]: 179; KM (Catalytic activity of FIXa variants) [3]: 0.0142 µM; kcat/KM (M^-1s^-1), FX activation by FIXa in the Xase complex [4]: 3.4e+08 M⁻¹ s⁻¹; kcat/KM for FX activation (Xase assay with FVIIIa, PC/PS vesicles, Ca2+) [4]: 3.4e+08 M⁻¹ s⁻¹
B4	–	–	–	–	K0.5 [6]: 5.88 µM
B5	–	> 517	0.0565	1.2	–
B6	improved activity when combined with other mutations	–	0.0292	10.6	–
B7	displayed some of the greatest increases in catalytic activity	–	0.0164	4.9	–
B8	–	> 517	–	6.4	K0.5-mut/K0.5-wt (against Catalyst Biosciences WT FIXa) [7]: > 517; KM (nM); Catalytic activity of FIXa variants (KM) [4]: 100 nM
B9	improved activity when combined with other mutations	–	–	–	kcat [4]: 14.6 s⁻¹; kcat/KM [4]: 5.6e+08 M⁻¹ s⁻¹
B10	demonstrated close to wild-type activity	–	–	–	K0.5-mut/K0.5-wt (against Catalyst Biosciences WT FIXa) [7]: 4.4
B11	–	> 517	0.0188	1.4	–
